No end group written: not given here.

The target of test [1] is T1, P-selectin expressed on the surface of CHO cells (CHO:P-selectin cell line) (UniProt P16109 42-830, limits assumed).
T1 construct: whole, on cells; also called P-selectin expressing CHO cells
T1 sequence (looked up): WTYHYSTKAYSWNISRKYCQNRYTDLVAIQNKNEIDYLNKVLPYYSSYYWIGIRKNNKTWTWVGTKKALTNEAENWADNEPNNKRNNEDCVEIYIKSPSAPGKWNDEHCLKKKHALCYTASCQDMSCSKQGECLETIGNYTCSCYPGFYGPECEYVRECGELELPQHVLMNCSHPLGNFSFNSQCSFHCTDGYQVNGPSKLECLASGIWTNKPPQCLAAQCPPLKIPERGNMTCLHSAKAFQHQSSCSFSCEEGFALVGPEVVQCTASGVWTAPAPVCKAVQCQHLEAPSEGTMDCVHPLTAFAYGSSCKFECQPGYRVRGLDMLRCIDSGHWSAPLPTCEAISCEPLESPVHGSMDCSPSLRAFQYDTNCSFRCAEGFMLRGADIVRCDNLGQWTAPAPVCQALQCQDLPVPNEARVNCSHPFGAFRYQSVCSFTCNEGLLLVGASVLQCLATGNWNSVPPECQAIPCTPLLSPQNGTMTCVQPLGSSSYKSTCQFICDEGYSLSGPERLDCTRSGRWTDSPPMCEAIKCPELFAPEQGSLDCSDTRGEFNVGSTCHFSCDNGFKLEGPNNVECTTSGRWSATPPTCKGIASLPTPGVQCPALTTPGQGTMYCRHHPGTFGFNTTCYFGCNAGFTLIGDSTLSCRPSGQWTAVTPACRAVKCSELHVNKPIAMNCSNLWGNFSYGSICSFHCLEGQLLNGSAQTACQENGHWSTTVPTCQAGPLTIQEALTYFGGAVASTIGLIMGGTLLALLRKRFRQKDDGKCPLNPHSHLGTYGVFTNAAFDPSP
The test can be described thus: adhesion of 3H-thymidine-labelled CHO:P-selectin cells to transfected COS cells. Here is the method: COS cells were co-transfected with the pMT21:PL85 plasmid of Example 1 and the pEA.3/4FT plasmid of Example 2 by the same procedure used in the initial stages of screening. As controls, COS cells were transfected with pMT21:PL85 alone, or with pEA.3/4FT alone, or with a similar plasmid containing no insert ("mock"). 24 hours post-transfection, the transfected cells were trypsinized and distributed into Costar 6-well tissue culture plates. CHO:P-selectin cells were labeled for 16 hours with ^3H-thymidine using known methods and preincubated at 0.5×10^6 cells/ml for 30 minutes at 4° C. in α medium containing 1% BSA (control); α medium containing 1% BSA, 5 mM EDTA and 5 mM EGTA; α medium containing 1% BSA and 10 μg/ml of a neutralizing anti P-selectin monoclonal antibody; and α medium containing 1% BSA and a non-neutralizing anti-P-selectin monoclonal antibody. The preincubated cells were then added to the wells containing the transfected COS cells. After a 10 minute incubation, unbound cells were removed by 4 changes of medium. The bound CHO:P-selectin cells were released by trypsinization and quantified by scintillation counting.
Likewise, incubation with neutralizing anti-P-selectin antibody also eliminated specific binding, whereas non-neutralizing antibody had no effect. […]

In test [2] the target is T2, E-selectin expressed on CHO cells (CHO:E-selectin) (UniProt P16581 22-610, limits assumed).
T2 construct: whole, on cells; also called E-selectin expressing CHO cells; CHO cells which express E-selectin
T2 sequence (looked up): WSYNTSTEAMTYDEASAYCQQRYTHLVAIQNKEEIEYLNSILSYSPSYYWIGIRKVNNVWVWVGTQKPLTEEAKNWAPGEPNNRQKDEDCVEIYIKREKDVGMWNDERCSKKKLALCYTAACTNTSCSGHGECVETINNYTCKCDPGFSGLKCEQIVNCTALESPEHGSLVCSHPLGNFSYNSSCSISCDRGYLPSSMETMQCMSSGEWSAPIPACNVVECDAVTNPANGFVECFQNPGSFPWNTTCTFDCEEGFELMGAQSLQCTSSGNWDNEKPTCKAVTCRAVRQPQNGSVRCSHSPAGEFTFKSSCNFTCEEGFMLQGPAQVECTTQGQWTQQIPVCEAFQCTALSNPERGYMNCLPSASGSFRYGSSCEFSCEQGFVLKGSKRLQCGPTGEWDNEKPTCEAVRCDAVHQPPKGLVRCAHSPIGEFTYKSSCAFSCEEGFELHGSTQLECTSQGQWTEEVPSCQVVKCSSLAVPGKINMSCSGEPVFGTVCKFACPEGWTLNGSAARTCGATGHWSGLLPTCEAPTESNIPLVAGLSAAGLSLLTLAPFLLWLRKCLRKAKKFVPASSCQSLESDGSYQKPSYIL
The test is described as follows: plate coated with chimera; adhesion of CHO:E-selectin cells (FIG. 17). Here is the method: (§1) Quantitative adhesion of CHO:P-selectin, CHO:E-selectin and CHO:L-selectin expressing cells was performed as described in Example 4(c), with the following modifications: COS cell and antibodies were omitted. Instead, 48-well microtiter plates (Costar) were coated for 16 hours at 4° C. with varying quantities of protein A-purified soluble PSGL-1/Fc chimeras. The unbound material was removed and the coated wells were treated with Hank's buffered saline (HBS) with 1 mg/ml BSA and 2 mM CaCl_2 for 1 hour at 4° C. Tritium labeled CHO selectin expressing cells were added and binding quantitated as described in Example 4(c).

The target in test [3] is T1, P-selectin expressed on the surface of …. The test can be described thus: plate coated with chimera; adhesion of CHO:P-selectin cells (FIG. 17). Here is the method: as §1
The target of test [4] is T3, E-selectin/IgG chimera of Example 9 (human) (UniProt P16581).
T3 sequence (looked up): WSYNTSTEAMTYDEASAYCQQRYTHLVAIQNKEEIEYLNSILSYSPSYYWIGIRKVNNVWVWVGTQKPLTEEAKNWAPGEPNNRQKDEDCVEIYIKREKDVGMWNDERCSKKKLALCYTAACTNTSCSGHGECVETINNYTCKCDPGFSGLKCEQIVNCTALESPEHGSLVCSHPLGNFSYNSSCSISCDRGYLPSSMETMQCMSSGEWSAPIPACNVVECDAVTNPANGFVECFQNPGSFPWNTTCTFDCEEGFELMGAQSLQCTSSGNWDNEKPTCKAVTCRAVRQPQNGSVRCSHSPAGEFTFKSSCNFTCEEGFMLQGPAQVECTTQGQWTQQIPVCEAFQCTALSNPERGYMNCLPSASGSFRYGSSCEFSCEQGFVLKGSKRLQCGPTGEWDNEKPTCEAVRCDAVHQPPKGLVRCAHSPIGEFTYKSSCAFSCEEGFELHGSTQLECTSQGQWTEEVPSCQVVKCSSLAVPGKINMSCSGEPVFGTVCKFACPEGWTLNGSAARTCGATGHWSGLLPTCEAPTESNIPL
The test can be described thus: affinity capture on E-selectin/IgG chimera protein A sepharose, EDTA elution, scintillation counting.

Test [5] has as its target T4, LEC-γ1, chimeric form of P-selectin conjugated to the Fc portion of a human IgGγ1 (human, UniProt P16109 42-771).
T4 construct: extracellular domain; Built by known methods (Aruffo et al. 1991), made in CHO DUKX cells; also called P-selectin/IgG chimera; P-selectin/Fc chimera; not shown: Fc portion of a human IgGγ1
T4 sequence (looked up): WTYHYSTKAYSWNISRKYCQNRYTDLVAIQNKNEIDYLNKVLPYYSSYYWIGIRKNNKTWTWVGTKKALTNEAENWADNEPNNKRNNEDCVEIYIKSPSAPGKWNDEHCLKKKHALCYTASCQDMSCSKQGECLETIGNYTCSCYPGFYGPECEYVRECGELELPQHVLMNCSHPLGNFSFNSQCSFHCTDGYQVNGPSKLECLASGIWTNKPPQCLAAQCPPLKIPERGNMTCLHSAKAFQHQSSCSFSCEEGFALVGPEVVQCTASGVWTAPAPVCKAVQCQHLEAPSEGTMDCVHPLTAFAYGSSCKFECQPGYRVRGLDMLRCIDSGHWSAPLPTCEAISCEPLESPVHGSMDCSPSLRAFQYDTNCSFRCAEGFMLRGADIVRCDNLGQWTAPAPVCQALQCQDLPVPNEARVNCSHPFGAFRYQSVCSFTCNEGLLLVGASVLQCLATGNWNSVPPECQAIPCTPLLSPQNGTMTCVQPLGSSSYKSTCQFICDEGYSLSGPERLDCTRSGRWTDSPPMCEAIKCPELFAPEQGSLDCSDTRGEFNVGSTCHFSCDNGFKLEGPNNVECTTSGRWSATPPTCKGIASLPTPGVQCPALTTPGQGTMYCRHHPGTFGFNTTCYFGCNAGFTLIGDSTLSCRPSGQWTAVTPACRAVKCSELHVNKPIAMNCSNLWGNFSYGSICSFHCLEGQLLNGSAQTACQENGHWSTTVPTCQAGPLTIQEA
The test can be described thus: affinity capture on P-selectin/IgG chimera protein A sepharose, EDTA elution, scintillation counting. Here is the method:
U937 cells (approximately 6.5 ×10^7) were recovered from tissue culture plates and divided equally into two 50 mL cultures (final concentration of […]) containing fresh complete RPMI medium and 50 µCi/ml of ^3H-glucosamine hydrochloride (labels the protein-linked carbohydrate of glycoproteins [Varki, FASEB 5:226-235 (1991)]. After 48 hours incubation, the cells from both cultures were recovered by centrifugation and washed three times with PBS. The pelleted cells were suspended in 2.5 mL each of a lysis buffer containing 1% Triton X-100 and disrupted by probe sonication for two minutes. The detergent lysates were placed on ice for three hours and then resonicated for an additional two minutes. The lysates were centrifuged at 16,000 rpm for five minutes, the supernatants were recovered and each adjusted to 12 mL with lysis buffer containing no detergent. […]
Following incubation, the two parallel reaction mixtures were each centrifuged at 2,000 rpm and supernatants were discarded. […] A final 1 mL pre-elution wash of each resin pellet using buffer containing 0.01% Triton X-100 was conducted and these were retained for quantitation of radioactive counts by liquid scintillation counting (LSC). […] The supernatants were recovered by centrifugation and then quantitated by LSC.

B1: full-length P-selectin ligand protein (PSGL-1, pMT21:PL85) expressed with fucosylation (COS or CHO cells with 3/4FT, or LEC11 cells) (ligand)
chain: QATEYEYLDYDFLPETEPPEMLRNSTDTTPLTGPGTPESTTVEPAARRSTGLDAGGAVTELTTELANMGNLSTDSAAMEIQTTQPAATEAQTTPLAATEAQTTRLTATEAQTTPLAATEAQTTPPAATEAQTTQPTGLEAQTTAPAAMEAQTTAPAAMEAQTTPPAAMEAQTTQTTAMEAQTTAPEATEAQTTQPTATEAQTTPLAAMEALSTEPSATEALSMEPTTKRGLFIPFSVSSVTHKGIPMAASNLSVNYPVGAPDHISVKQCLLAILILALVATIFFVCTVVLAVRLSRKGHMYPVRNYSPTEMVCISSLLPDGGEGPSATANGGLSKAKSPGLTPEPREDREGDDLTLHSFLP
modifications: glycosylated; co-expressed with (α1,3/α1,4) fucosyltransferase (3/4FT) or made in SLex-positive LEC11 cells
notes: Encoded as amino acids 1-402; In blots and immunoprecipitations it stood as a membrane detergent extract; also called PSL; CD-PSGL-1 (R3.4) product
With B1, the “fold binding of CHO:P-selectin cells relative to COS mock cells” value in test [1] is approximately 5.4 fold.

B2: 47.Fc of Example 10, amino acids 42-88 of SEQ ID NO:2 fused to IgG Fc (Fc fusion)
chain: QATEYEYLDYDFLPETEPPEMLRNSTDTTPLTGPGTPESTTVEPAAR
modifications: not fully specified (C-terminus); also: glycosylated, co-expressed with 3/4FT, sites not given here
notes: also called pED.47.Fc product; not shown: NotI junction/linker of pED.Fc; Fc region of a human IgG1 from pED.PSL.Fc
Take B2: the binding result in test [2] and in test [3] was “binds” throughout.

B3: native PSGL-1 of U937 cells (major glycoprotein captured from detergent extracts) (ligand, human, UniProt Q14242 42-412, looked up)
chain: QATEYEYLDYDFLPETEPPEMLRNSTDTTPLTGPGTPESTTVEPAARRSTGLDAGGAVTELTTELANMGNLSTDSAAMEIQTTQPAATEAQTTQPVPTEAQTTPLAATEAQTTRLTATEAQTTPLAATEAQTTPPAATEAQTTQPTGLEAQTTAPAAMEAQTTAPAAMEAQTTPPAAMEAQTTQTTAMEAQTTAPEATEAQTTQPTATEAQTTPLAAMEALSTEPSATEALSMEPTTKRGLFIPFSVSSVTHKGIPMAASNLSVNYPVGAPDHISVKQCLLAILILALVATIFFVCTVVLAVRLSRKGHMYPVRNYSPTEMVCISSLLPDGGEGPSATANGGLSKAKSPGLTPEPREDREGDDLTLHSFLP
modifications: native myeloid glycosylation, 3H-glucosamine labelled
notes: 200-220 kD non-reduced, 100-120 kD reduced; also called U937 ligand; major U937 glycoprotein
For the molecule B3, the radiolabel in the EDTA eluate relative to the final pre-EDTA wash in test [4] was more than 10 fold; in test [5], not below 10 fold.

The record behind these values is patent publication US7563760 (GENETICS INSTITUTE, dated 2009).
